Test results reported in patent US10677782B2, “Methods of determining interferon having direct inhibitory effects on tumors and uses thereof” (SUPERLAB FAR EAST LIMITED, priority 2013, dated 2020).

What was measured:
[1] = Tolerability and body weight of tumor-bearing mice, Example 1; type: in vivo, BALB/cA nu/nu mice; settings: 0.05-0.15 mg/mouse i.t. every other day, 21 days
From the text: The animals used were 4-6 weeks old male BALB/cA nu/nu mice, weighing about 23±2 g, obtained from the Shanghai Institute of Materia Medica (Shanghai, P.R. China). The study protocol was reviewed by the Committee on the Use and Care of Animals of Shanghai Institute of Materia Medica for compliance with regulations, and Committee approval was obtained prior to study initiation. Wherever possible, procedures used in this study were designed to avoid or minimize discomfort, distress, and pain to the animals. Animals that experience severe or chronic pain or distress that could not be relieved were painlessly euthanized, in accordance to regulations. Animals were housed 6 to a cage. They were ear-marked with ear hole punch identification. The room temperature was maintained at 25° C.±1° C. Lighting was set at 12 hr on and 12 hr off. Food was provided ad libitum. City tap water, filtered with a 5 micrometer (μm) filter, was provided to the animals ad libitum via water bottles.
Animals were assigned to treatment groups randomly. Initially, all animals were placed in one large animal cage. For assignment to the study, they were later separately housed, with 6 animals per cage per treatment group. […] Tumor growth was monitored by measuring the length and width of each tumor twice a week during the course of the study. […]

[2] = Tolerability and body weight of tumor-bearing mice, Example 2; type: in vivo, BALB/cA nu/nu mice
Method: Animals were assigned to treatment groups randomly. Initially, all animals were placed in one large animal cage. For assignment to the study, they were later separately housed, with 6 animals per cage per treatment group. Groups 1 and 2 are Control groups in which the animals were each administered the vehicle every other day after the first treatment. […] The animals in Groups 4, 5 and 6 were each given rSIFN-co every other day after the first treatment at 0.15 mg/mouse (Group 4) or 0.10 mg/mouse (Group 5) or 0.05 mg/mouse (Group 6), respectively. Tumor growth was monitored by measuring the length and width of each tumor twice a week during the course of the study. Each animal was also weighed twice a week during the course of the study.
The study was conducted as in Example 1 except as specifically indicated otherwise. Human cervical cancer xenografts were first established and prepared in a similar manner as in Example 1, by inoculating 5×10^6 Hela cells subcutaneously in nude mice and passaging the well-grown xenografts twice in nude mice. Then 1.5 mm^3 fragments were prepared for s.c. implantation into the animals. The body weight of the animals averaged 19±2 g at dose initiation In contrast to Example 1, the animals used were all female.

A549 tumor cells = test: Cell viability over 1-6 days, MTT assay; type: cell-based, human; settings: 10 μg/ml
Method: The cell survival rate was evaluated in a standard MTT assay (3-(4,5-dimethylthiazol-2-yl)-2,5-diphenyltetrazolium bromide assay, Sigma, St. Louis, Mo.). For the assay, about 20 μl MTT (at […]) was added to each well. The cells were incubated at 37° C. for 4 hr. After that, the supernatant of each well was drawn off carefully and then an equal volume (150 microliter) of dimethyl sulfoxide (DMSO) was added to each well and mixed thoroughly on a shaker for 15 min. The absorbance from the plates was read at 595 nm with a Thermo Scientific Microplate Reader (Thermo Fisher Scientific Inc., Lowell, Mass.). The relative cell viability was calculated as follows: Cell viability=(Treated group(OD595) minus blank(OD595))/(Control group(OD595) minus blank(OD595))×100%.

[3] = tested on: beta-catenin protein level in A549 cells; test: Beta-catenin protein level by Western Blot; type: cell-based, human; settings: 10 mcg/ml
Method: (§1) Cancer cells, A549 and Sw480, were cultured to about 85% confluency and put into 6 well plates. The cells were treated with either 10 mcg/ml IFNα-2b or rSIFN-co or left untreated as control (Mock) for 24 hr, 48 hr, or 72 hr, respectively. After treatment, the cells were harvested for Western Blot to detect the beta-catenin protein level, using its specific antibody, with GAPDH as endogenous loading control. The experiment was conducted in triplicate.
(§2) To determine the expression of various proteins, cells were harvested from the plates and total cellular protein were extracted using extraction reagents (Cat #: P0013) according to the manufacturer's protocol (Beyotime, China). The total protein concentration was determined by the Lowry Protein Assay kit (Bio-Rad, USA). […] The membranes were blocked with 5% skimmed milk, bovine serum albumin, 10 mmol/L Tris-HCl at pH 8.0, 150 mmol/L NaCl, and 0.05% Tween 20 overnight at 4° C. The blocked membranes were then incubated with primary antibodies (1:1000 dilutions), followed by secondary HRP-conjugated antibodies. Blots were visualized using Luminescence/Fluorescence Imaging LAS4000 System (GE Healthcare Life Sciences, USA) with super signal west pico chemiluminescent substrate kit (Thermo scientific, USA).
(§3) For this determination, the primary antibodies used were mouse monoclonal anti-beta-catenin antibodies (1:1000; Santa Cruz Technology, Santa Cruz, Calif.) and mouse monoclonal anti-GAPDH antibodies (1:2000) (Kangwei Biotechnology, China). Anti-mouse HRP-conjugated secondary antibodies (Santa Cruz Technology, Santa Cruz, Calif.) were used at concentrations of 1:2000.

[4] = tested on: beta-catenin protein level in SW480 cells; test: Beta-catenin protein level by Western Blot; type: cell-based, human; settings: 10 mcg/ml, 72 hours
Method: as §1, §2, §3

[5] = tested on: procaspase-3, cleaved caspase-3, procaspase-8, cleaved caspase-8, PARP in A549 cells; test: Apoptosis-related molecular markers by Western Blot; type: cell-based, human; settings: 24 hr or 48 hr; interferons at 10 mcg/ml
From the text: (§4) Thereafter, apoptosis-related molecular markers were monitored by Western Blot. The primary antibodies used were mouse monoclonal anti-beta-tubulin (1:2000, Cat #: CW0098A) and mouse monoclonal anti-GAPDH (1:2000, Cat #: CW0100A) (Kangwei Biotechnology, China); mouse monoclonal anti-PARP (1:1000, Cat #: se-2007, Santa Cruz Biotechnology, Inc.); rabbit monoclonal anti-procaspase 3 (1:1000, Cat #: 9665), and rabbit polyclonal anti-cleaved caspase 3 (1:1000, Cat #: 9661) (Cell Signaling Technology, USA); goat polyclonal anti-procaspase 8 (1:1000, Cat #: sc-6136, Santa Cruz Biotechnology, Inc); rabbit monoclonal anti-cleaved caspase 8 (1:1000, Cat #: 9496) (Cell Signaling Technology, USA).

[6] = tested on: procaspase-3, cleaved caspase-3, procaspase-8, cleaved caspase-8, PARP in SW620 cells; test: as above; type: cell-based, human; settings: 24 hr or 48 hr; interferons at 10 mcg/ml
From the text: as §4

B1: rSIFN-co: Recombinant super-compound interferon; amino acid sequence SEQ ID NO: 1 (same as interferon alfacon-1), encoded by SEQ ID NO: 2, novel tertiary structure (protein)
chain: MCDLPQTHSLGNRRALILLAQMRRISPFSCLKDRHDFGFPQEEFDGNQFQKAQAISVLHEMIQQTFNLFSTKDSSAAWDESLLEKFYTELYQQLNDLEACVIQEVGVEETPLMNVDSILAVKKYFQRITLYLTEKKYSPCAWEVVRAEIMRSFSLSTNLQERLRRKE
modifications: Amino acid sequence of recombinant interferon
[1]
  tolerability: signs of toxicity or weight loss: no signs of toxicity or weight loss
[2]; 0.05-0.15 mg/mouse i.t. every other day, 28 days
  tolerability: signs of toxicity: no signs of toxicity
[2]; 28-day treatment period
  change in average body weight: Very little change
A549 tumor cells
  cell viability, time dependent effect: apparent for A549 cells for only about the first 3 days of treatment
[3]; 48 hr
  beta-catenin protein level: dramatically decreased
[3]; 72 hr
  beta-catenin protein level: Further decrease
[4]
  beta-catenin protein level: Decrease in beta-catenin protein level in the SW480 cells was obvious
[5]
  level of apoptosis-related molecular markers (procaspase-3, procaspase-8, PARP, cleaved caspase-3, cleaved caspase-8): neither of the interferons, IFN alpha-2b nor rSIFN-co, caused any reduction in the level of procaspase-3 or procaspase-8 or PARP, or induced any enhancement in the level of cleaved caspase-3 or cleaved caspase-8
[6]
  level of apoptosis-related molecular markers (procaspase-3, procaspase-8, PARP, cleaved caspase-3, cleaved caspase-8): neither of the interferons, IFN alpha-2b nor rSIFN-co, caused any reduction in the level of procaspase-3 or procaspase-8 or PARP, or induced any enhancement in the level of cleaved caspase-3 or cleaved caspase-8
